In general, stoichiometry N refers to the number of molecules, sites or subunits per partner or assembly.

T1: Cdc3p (S. cerevisiae, UniProt P32457 1-520)
T1 sequence: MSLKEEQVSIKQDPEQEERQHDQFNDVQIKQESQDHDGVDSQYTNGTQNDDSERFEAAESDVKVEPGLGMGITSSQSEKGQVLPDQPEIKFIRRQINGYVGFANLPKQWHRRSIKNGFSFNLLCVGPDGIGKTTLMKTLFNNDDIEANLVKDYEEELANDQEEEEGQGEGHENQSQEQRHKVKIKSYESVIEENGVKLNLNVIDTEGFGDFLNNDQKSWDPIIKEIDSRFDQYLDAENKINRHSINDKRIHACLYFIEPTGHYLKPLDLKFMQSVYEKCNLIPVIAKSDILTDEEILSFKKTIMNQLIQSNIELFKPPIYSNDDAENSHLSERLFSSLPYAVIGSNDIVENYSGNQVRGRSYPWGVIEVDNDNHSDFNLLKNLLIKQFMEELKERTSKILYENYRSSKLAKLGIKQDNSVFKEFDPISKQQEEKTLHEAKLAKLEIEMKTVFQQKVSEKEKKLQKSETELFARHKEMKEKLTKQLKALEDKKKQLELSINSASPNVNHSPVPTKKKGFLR

B1: Cdc12p (natural protein)
chain: MSAATATAAPVPPPVGISNLPNQRYKIVNEEGGTFTVMLCGESGLGKTTFINTLFQTVLKRADGQQHRQEPIRKTVEIDITRALLEEKHFELRVNVIDTPGFGDNVNNNKAWQPLVDFIDDQHDSYMRQEQQPYRTKKFDLRVHAVLYFIRPTGHGLKPIDIETMKRLSTRANLIPVIAKADTLTAQELQQFKSRIRQVIEAQEIRIFTPPLDADSKEDAKSGSNPDSAAVEHARQLIEAMPFAIVGSEKKFDNGQGTQVVARKYPWGLVEIENDSHCDFRKLRALLLRTYLLDLISTTQEMHYETYRRLRLEGHENTGEGNEDFTLPAIAPARKLSHNPRYKEEENALKKYFTDQVKAEEQRFRQWEQNIVNERIRLNGDLEEIQGKVKKLEEQVKSLQVKKSHLK
B2: Cdc11p (natural protein)
chain: MSGIIDASSALRKRKHLKRGITFTVMIVGQSGSGRSTFINTLCGQQVVDTSTTILLPTDTSTEIDLQLREETVELEDDEGVKIQLNIIDTPGFGDSLDNSPSFEIISDYIRHQYDEILLEESRVRRNPRFKDGRVHCCLYLINPTGHGLKEIDVEFIRQLGSLVNIIPVISKSDSLTRDELKLNKKLIMEDIDRWNLPIYNFPFDEDEISDEDYETNMYLRTLLPFAIIGSNEVYEMGGDVGTIRGRKYPWGILDVEDSSISDFVILRNALLISHLHDLKNYTHEILYERYRTEALSGESVAAESIRPNLTKLNGSSSSSTTTRRNTNPFKQSNNINNDVLNPASDMHGQSTGENNETYMTREEQIRLEEERLKAFEERVQQELLLKRQELLQREKELREIEARLEKEAKIKQEE
B3: Cdc10p (natural protein)
chain: MDPLSSVQPASYVGFDTITNQIEHRLLKKGFQFNIMVVGQSGLGKSTLINTLFASHLIDSATGDDISALPVTKTTEMKISTHTLVEDRVRLNINVIDTPGFGDFIDNSKAWEPIVKYIKEQHSQYLRKELTAQRERFITDTRVHAILYFLQPNGKELSRLDVEALKRLTEIANVIPVIGKSDTLTLDERTEFRELIQNEFEKYNFKIYPYDSEELTDEELELNRSVRSIIPFAVVGSENEIEINGETFRGRKTRWSAINVEDINQCDFVYLREFLIRTHLQDLIETTSYIHYEGFRARQLIALKENANSRSSAHMSSNAIQR

The test addresses T1, Cdc3p. The test can be described thus: SEC + other: sucrose gradient sedimentation.
For B1, the “stoichiometry N” value is ~1 Cdc12p per Cdc3p (2:2).
To B2 belongs ~0.5 Cdc11p per Cdc3p (1:2); to B3, ~1 Cdc10p per Cdc3p (2:2).

(Values after PMC2148147 (The Journal of Cell Biology, 1998).)
